Data on eight molecules can be found in patent US20120316071A1 (published 2012).

The target in experiment [1] is T1, rHuman ErbB2/Fc Chimera, CF (human, UniProt P04626 23-652).
T1 construct: Bought from R&D Systems; also called human epidermal growth factor 2 receptor; not shown: Fc of the bought chimera
The experiment can be described thus: ECL Multispot (MSD) assay; antigen spotted on plate, Fab in solution.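 Also: fab bound 1 h at 20 °C, detected by TAG-labelled antibody electrochemiluminescence, signal relative to each well's blank, ratio of 4 or more marks a hit.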

Experiment [2] concerns the target T2, rHuman EGF R/Fc Chimera, CF (human, UniProt P00533 25-645).
T2 construct: Bought from R&D Systems; also called epidermal growth factor receptor; not shown: Fc of the bought chimera
The description is as above.

Experiment [3] deals with T3, rHuman HGF R/c-MET/Fc Chimera, CF (human, UniProt P08581 25-932).
T3 construct: Bought from R&D Systems; also called HGF R/Fc; hepatocyte growth factor receptor; not shown: Fc of the bought chimera
T3 sequence (P08581 25-932, change not shown): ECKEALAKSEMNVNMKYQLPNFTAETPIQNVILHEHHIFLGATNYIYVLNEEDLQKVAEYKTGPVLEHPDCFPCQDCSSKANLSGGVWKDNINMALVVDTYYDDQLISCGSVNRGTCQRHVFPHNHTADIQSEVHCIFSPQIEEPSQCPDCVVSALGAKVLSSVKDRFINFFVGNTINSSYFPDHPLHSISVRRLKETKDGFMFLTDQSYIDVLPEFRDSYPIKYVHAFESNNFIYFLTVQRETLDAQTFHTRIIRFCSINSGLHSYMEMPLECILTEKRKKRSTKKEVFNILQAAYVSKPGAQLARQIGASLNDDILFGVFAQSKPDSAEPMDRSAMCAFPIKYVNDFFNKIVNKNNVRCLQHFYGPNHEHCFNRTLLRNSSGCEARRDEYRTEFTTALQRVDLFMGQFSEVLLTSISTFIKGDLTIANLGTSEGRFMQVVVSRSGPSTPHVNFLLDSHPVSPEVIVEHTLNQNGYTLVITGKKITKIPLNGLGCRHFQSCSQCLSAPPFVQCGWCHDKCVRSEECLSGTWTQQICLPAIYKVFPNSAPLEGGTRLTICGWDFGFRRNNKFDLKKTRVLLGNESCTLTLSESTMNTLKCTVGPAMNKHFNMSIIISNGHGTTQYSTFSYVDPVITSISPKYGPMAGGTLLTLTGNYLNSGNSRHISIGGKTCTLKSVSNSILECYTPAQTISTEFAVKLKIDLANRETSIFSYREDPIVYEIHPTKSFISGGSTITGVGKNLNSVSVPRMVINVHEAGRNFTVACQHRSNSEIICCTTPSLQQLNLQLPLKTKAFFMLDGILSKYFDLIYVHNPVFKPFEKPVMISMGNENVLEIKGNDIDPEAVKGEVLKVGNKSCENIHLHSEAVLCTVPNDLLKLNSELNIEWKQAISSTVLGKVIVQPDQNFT
The experiment is described as above.

Experiment [4] deals with T4, rHuman Notch-1/Fc Chimera, CF (human, UniProt P46531 19-526).
T4 construct: Bought from R&D Systems; not shown: Fc of the bought chimera
The description is as above.

Experiment [5] deals with T5, rHuman CD44/Fc Chimera, CF (human, UniProt P16070 21-220).
T5 construct: Bought from R&D Systems; not shown: Fc of the bought chimera
Described as above.

For experiment [6], the target named is T6, rHuman IGF-1 sR, (IGF-1 sR), CF (human, UniProt P08069 31-932).
T6 construct: Bought from R&D Systems; also called insulin-like growth factor-1 soluble receptor
Described as above.

For experiment [7], the target named is T7, rHuman P-Cadherin/Fc Chimera, CF (human, UniProt P22223 108-654).
T7 construct: Bought from R&D Systems; not shown: Fc of the bought chimera
Described as above.

Experiment [8] addresses T8, rHuman Erythropoietin R/Fc Chimera, CF (human, UniProt P19235 25-250).
T8 construct: Bought from R&D Systems; also called EPO R; EPO R/Fc; not shown: Fc of the bought chimera
T8 sequence (looked up): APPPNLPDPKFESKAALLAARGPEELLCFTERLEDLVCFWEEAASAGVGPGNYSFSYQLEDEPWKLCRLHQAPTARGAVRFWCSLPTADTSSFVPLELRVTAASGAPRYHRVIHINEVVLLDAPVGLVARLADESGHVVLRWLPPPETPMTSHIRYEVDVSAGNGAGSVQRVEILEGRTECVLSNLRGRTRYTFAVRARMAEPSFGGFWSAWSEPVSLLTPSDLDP
The experiment is described as above.

The target of the next experiment is T9, Recombinant Human DLL4 (human, UniProt Q9NR61 27-524).
T9 construct: Bought from R&D Systems; also called delta-like protein 4; rHuman DLL4
The experiment is described as above.

For experiment [9], the target named is T10, rHuman ErbB2/Fc Chimera, CF (R&D Systems Cat#1129-ER) (human, UniProt P04626 23-652).
T10 construct: Bought recombinant protein; also called human epidermal growth factor 2 receptor
The experiment can be described thus: ECL multispot (MSD) binding assay, antigen spotted on plate.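 Also: purified Fab incubated 1 h at 20 °C on antigen spots, detected with TAG-labelled antibody, electrochemiluminescence compared with each well's blank, signal-to-blank ratio ≥4 counted as hit.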

Experiment [10] addresses T11, rHuman EGF R/Fc Chimera, CF (R&D Systems Cat#344-ER) (human, UniProt P00533 25-645).
T11 construct: Bought recombinant protein; also called epidermal growth factor receptor
The experiment is described as above.

For experiment [11], the target named is T12, rHuman HGF R/c-MET/Fc Chimera, CF (R&D Systems Cat#358-MT/CF) (human, UniProt P08581 25-932).
T12 construct: Bought recombinant protein; also called HGF R/Fc; hepatocyte growth factor receptor
T12 sequence (P08581 25-932, change not shown): as the sequence (P08581 25-932, change not shown) above
The description is as above.

Experiment [12] addresses T13, rHuman Notch-1/Fc Chimera, CF (R&D Systems Cat#3647-TK) (human, UniProt P46531 19-526).
T13 construct: Bought recombinant protein
Described as above.

Experiment [13] has as its target T14, rHuman CD44/Fc Chimera, CF (R&D Systems Cat#3660-CD) (human, UniProt P16070 21-220).
T14 construct: Bought recombinant protein
The description is as above.

In experiment [14] the target is T15, rHuman IGF-1 sR, (IGF-1 sR), CF (R&D Systems Cat#391-GR) (human, UniProt P08069 31-932).
T15 construct: Bought recombinant soluble receptor; also called insulin-like growth factor-1 soluble receptor
Described as above.

The target in experiment [15] is T16, rHuman P-Cadherin/Fc Chimera, CF (R&D Systems Cat#861-PC) (human, UniProt P22223 108-654).
T16 construct: Bought recombinant protein
Described as above.

Experiment [16] has as its target T17, rHuman Erythropoietin R/Fc Chimera, CF (R&D Systems Cat#963-ER) (human, UniProt P19235 25-250).
T17 construct: Bought recombinant protein; also called EPO R; EPO R/Fc
T17 sequence (looked up): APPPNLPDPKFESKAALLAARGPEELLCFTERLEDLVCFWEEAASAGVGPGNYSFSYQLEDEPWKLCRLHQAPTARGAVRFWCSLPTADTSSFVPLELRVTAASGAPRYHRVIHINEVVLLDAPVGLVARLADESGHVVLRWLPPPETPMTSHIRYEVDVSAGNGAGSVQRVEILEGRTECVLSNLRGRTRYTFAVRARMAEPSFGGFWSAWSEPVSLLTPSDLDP
Described as above.

The target in experiment [17] is T18, Recombinant Human DLL4 (R&D Systems Cat#1506-D4/CF) (human, UniProt Q9NR61 27-524).
T18 construct: Bought recombinant protein; also called delta-like protein 4; rHuman DLL4
Described as above.

B1: Fab VH1-46_IGHD6-6*01_IGHJ1*01 S102A/S103P/S104F/H111F (APFF) & L6_IGKJ1*01 S28V (Fab, V domains shown)
VH: QVQLVQSGAEVKKPGASVKVSCKASGYTFTSYYMHWVRQAPGQGLEWMGIINPSGGSTSYAQKFQGRVTMTRDTSTSTVYMELSSLRSEDTAVYYCAREEYAPFSAEYFQFWGQGTLVTVSS
VL: EIVLTQSPATLSLSPGERATLSCRASQVVSSYLAWYQQKPGQAPRLLIYDASNRATGIPARFSGSGSGTDFTLTISSLEPEDFAVYYCQQRSNWPPWTFGQGTKVEIKR
notes: Fab made in E. coli; the variable domains were cloned into Plasmid A (CH1, His and Flag tags) and Plasmid C (kappa CL); also called APFF / S28V
In the case of B1, the ECL signal was found to be 231 in [1]; 327 in experiment [2]; 338 in [3]; 289 in experiment [4]; 380 in experiment [5]; 284 in [6]. For the same molecule, the ECL signal in experiment [7] was determined as 344; in [8], 446; in the experiment with Recombinant Human DLL4, 83100.

B2: Fab VH1-46_IGHD6-6*01_IGHJ1*01 S102A/S103P/S104F/H111F (APFF) & L6_IGKJ1*01 S31I (Fab, V domains shown)
VH: QVQLVQSGAEVKKPGASVKVSCKASGYTFTSYYMHWVRQAPGQGLEWMGIINPSGGSTSYAQKFQGRVTMTRDTSTSTVYMELSSLRSEDTAVYYCAREEYAPFSAEYFQFWGQGTLVTVSS
VL: EIVLTQSPATLSLSPGERATLSCRASQSVSIYLAWYQQKPGQAPRLLIYDASNRATGIPARFSGSGSGTDFTLTISSLEPEDFAVYYCQQRSNWPPWTFGQGTKVEIKR
notes: Tested as Fab (CH1 with His6/Flag tags, kappa CL) made in E. coli; also called APFF / S31I
Take B2: the ECL signal came out at 222 in experiment [9]; 363 in experiment [10]; 303 in [11]; 421 in experiment [12]; 506 in experiment [13]; 365 in [14]. The ECL signal in experiment [15] was 444; in experiment [16] it was 500; in experiment [17], 174000.

B3: Fab VH1-46_IGHD6-6*01_IGHJ1*01 S102A/S103P/S104F/H111F (APFF) & L6_IGKJ1*01 S31D (Fab, V domains shown)
VH: QVQLVQSGAEVKKPGASVKVSCKASGYTFTSYYMHWVRQAPGQGLEWMGIINPSGGSTSYAQKFQGRVTMTRDTSTSTVYMELSSLRSEDTAVYYCAREEYAPFSAEYFQFWGQGTLVTVSS
VL: EIVLTQSPATLSLSPGERATLSCRASQSVSDYLAWYQQKPGQAPRLLIYDASNRATGIPARFSGSGSGTDFTLTISSLEPEDFAVYYCQQRSNWPPWTFGQGTKVEIKR
notes: Tested as Fab (CH1 with His6/Flag tags, kappa CL) made in E. coli; also called APFF / S31D
Turning to B3, the ECL signal in [9] was 479; in experiment [10], 438; in [11], 429; in experiment [12] it was 510; in experiment [13], 471; in [14], 407. Besides, the ECL signal in experiment [15] is 451; in experiment [16], 596; in [17], 154000.

B4: Fab VH1-46_IGHD6-6*01_IGHJ1*01 S102A/S103P/S104F/H111F (APFF) & L6_IGKJ1*01 S31P (Fab, V domains shown)
VH: QVQLVQSGAEVKKPGASVKVSCKASGYTFTSYYMHWVRQAPGQGLEWMGIINPSGGSTSYAQKFQGRVTMTRDTSTSTVYMELSSLRSEDTAVYYCAREEYAPFSAEYFQFWGQGTLVTVSS
VL: EIVLTQSPATLSLSPGERATLSCRASQSVSPYLAWYQQKPGQAPRLLIYDASNRATGIPARFSGSGSGTDFTLTISSLEPEDFAVYYCQQRSNWPPWTFGQGTKVEIKR
notes: Tested as Fab (CH1 with His6/Flag tags, kappa CL) made in E. coli; also called APFF / S31P
For B4, the ECL signal in experiment [9] was determined as 372; in experiment [10], 488; in experiment [11] it was 431; in [12], 461; in experiment [13] it was 466; in experiment [14], 404. Also, the ECL signal was determined as 493 in experiment [15], 594 in experiment [16] and 53300 in experiment [17].

B5: Fab VH1-46_IGHD6-6*01_IGHJ1*01 S102A/S103P/S104F/H111F (APFF) & L6_IGKJ1*01 S31M (Fab, V domains shown)
VH: QVQLVQSGAEVKKPGASVKVSCKASGYTFTSYYMHWVRQAPGQGLEWMGIINPSGGSTSYAQKFQGRVTMTRDTSTSTVYMELSSLRSEDTAVYYCAREEYAPFSAEYFQFWGQGTLVTVSS
VL: EIVLTQSPATLSLSPGERATLSCRASQSVSMYLAWYQQKPGQAPRLLIYDASNRATGIPARFSGSGSGTDFTLTISSLEPEDFAVYYCQQRSNWPPWTFGQGTKVEIKR
notes: Tested as Fab (CH1 with His6/Flag tags, kappa CL) made in E. coli; also called APFF / S31M
Regarding B5, the ECL signal in [9] came out at 352; in [10], 380; in experiment [11], 293; in [12] it was 474; in experiment [13] it was 488; in experiment [14] it was 445. The ECL signal was 510 in [15], 573 in experiment [16] and 167000 in experiment [17].

B6: Fab VH1-46_IGHD6-6*01_IGHJ1*01 S102A/S103P/S104F/H111F (APFF) & L6_IGKJ1*01 S31L (Fab, V domains shown)
VH: QVQLVQSGAEVKKPGASVKVSCKASGYTFTSYYMHWVRQAPGQGLEWMGIINPSGGSTSYAQKFQGRVTMTRDTSTSTVYMELSSLRSEDTAVYYCAREEYAPFSAEYFQFWGQGTLVTVSS
VL: EIVLTQSPATLSLSPGERATLSCRASQSVSLYLAWYQQKPGQAPRLLIYDASNRATGIPARFSGSGSGTDFTLTISSLEPEDFAVYYCQQRSNWPPWTFGQGTKVEIKR
notes: Tested as Fab (CH1 with His6/Flag tags, kappa CL) made in E. coli; also called APFF / S31L
On to B6, for which the ECL signal in experiment [9] was 288; in experiment [10], 375; in experiment [11], 319; in [12], 365; in experiment [13], 371; in experiment [14] it was 405. For the same molecule, the ECL signal in [15] is 346; in experiment [16], 427; in [17], 155000.

B7: Fab VH1-46_IGHD6-6*01_IGHJ1*01 S102A/S103P/S104F/H111F (APFF) & L6_IGKJ1*01 S31H (Fab, V domains shown)
VH: QVQLVQSGAEVKKPGASVKVSCKASGYTFTSYYMHWVRQAPGQGLEWMGIINPSGGSTSYAQKFQGRVTMTRDTSTSTVYMELSSLRSEDTAVYYCAREEYAPFSAEYFQFWGQGTLVTVSS
VL: EIVLTQSPATLSLSPGERATLSCRASQSVSHYLAWYQQKPGQAPRLLIYDASNRATGIPARFSGSGSGTDFTLTISSLEPEDFAVYYCQQRSNWPPWTFGQGTKVEIKR
notes: Tested as Fab (CH1 with His6/Flag tags, kappa CL) made in E. coli; also called APFF / S31H
Regarding B7, the ECL signal in [9] was 307; in experiment [10], 373; in experiment [11], 352; in experiment [12], 421; in experiment [13] it was 426; in experiment [14] it was 350. For the same molecule, the results for the ECL signal in experiment [15], in experiment [16] and in experiment [17] were 480, 504 and 221000, respectively.

B8: Fab VH1-46_IGHD6-6*01_IGHJ1*01 S102A/S103P/S104F/H111F (APFF) & L6_IGKJ1*01 S31F (Fab, V domains shown)
VH: QVQLVQSGAEVKKPGASVKVSCKASGYTFTSYYMHWVRQAPGQGLEWMGIINPSGGSTSYAQKFQGRVTMTRDTSTSTVYMELSSLRSEDTAVYYCAREEYAPFSAEYFQFWGQGTLVTVSS
VL: EIVLTQSPATLSLSPGERATLSCRASQSVSFYLAWYQQKPGQAPRLLIYDASNRATGIPARFSGSGSGTDFTLTISSLEPEDFAVYYCQQRSNWPPWTFGQGTKVEIKR
notes: Tested as Fab (CH1 with His6/Flag tags, kappa CL) made in E. coli; also called APFF / S31F
In the case of B8, the ECL signal is 295 in [9]; 342 in experiment [10]; 280 in [11]; 349 in experiment [12]; 256 in [13]; 267 in [14]. Further, the ECL signal in experiment [15] was determined as 369; in [16] it was 599; in [17], 189000.
